The target of the experiment is nucleosome containing the H3(1-132)-QFI chimera (Drosophila | budding yeast), P02299. Description: ITC. (In general: Isothermal titration calorimetry measures the heat released or taken up as one component is titrated into another.)

In the case of GLRKSTRVKVAPLQYWRNEKIVY (domain or fragment, modifications not checked) [budding yeast CENP-C motif], the dissociation constant Kd amounted to 300 nM.

As usually defined, the Kd is the free concentration of one partner at which half of the binding sites on the other are occupied at equilibrium, for simple one-to-one binding.

(Values after publication PMC3763809.)
